Source: patent US20260151494A1 (ARO BIOTHERAPEUTICS, published 2026)
Positions count from the first letter of the chain named. One block for each binder: values may come before it.

What was measured:
[1] = target: T1, apical domain of human CD71 (human, UniProt P02786 189-383, limits assumed); experiment: primary ELISA; further: test concentration or dose not given here
T1 construct: domain: apical domain; Screen 4 panned on human apical domains, the ELISA text says only 'apical domain'

[2] = target: T2, human CD71 extracellular domain (human, UniProt P02786 89-760, biotinylated); experiment: primary ELISA; further: test concentration or dose not given here
T2 construct: also called hCD71; CD71-ECD

[3] = target: T1, apical domain of human CD71; experiment: primary ELISA, RLU over HSA
[4] = target: T2, human CD71 extracellular domain; experiment: primary ELISA, RLU over HSA

T2 sequence (P02786 89-760): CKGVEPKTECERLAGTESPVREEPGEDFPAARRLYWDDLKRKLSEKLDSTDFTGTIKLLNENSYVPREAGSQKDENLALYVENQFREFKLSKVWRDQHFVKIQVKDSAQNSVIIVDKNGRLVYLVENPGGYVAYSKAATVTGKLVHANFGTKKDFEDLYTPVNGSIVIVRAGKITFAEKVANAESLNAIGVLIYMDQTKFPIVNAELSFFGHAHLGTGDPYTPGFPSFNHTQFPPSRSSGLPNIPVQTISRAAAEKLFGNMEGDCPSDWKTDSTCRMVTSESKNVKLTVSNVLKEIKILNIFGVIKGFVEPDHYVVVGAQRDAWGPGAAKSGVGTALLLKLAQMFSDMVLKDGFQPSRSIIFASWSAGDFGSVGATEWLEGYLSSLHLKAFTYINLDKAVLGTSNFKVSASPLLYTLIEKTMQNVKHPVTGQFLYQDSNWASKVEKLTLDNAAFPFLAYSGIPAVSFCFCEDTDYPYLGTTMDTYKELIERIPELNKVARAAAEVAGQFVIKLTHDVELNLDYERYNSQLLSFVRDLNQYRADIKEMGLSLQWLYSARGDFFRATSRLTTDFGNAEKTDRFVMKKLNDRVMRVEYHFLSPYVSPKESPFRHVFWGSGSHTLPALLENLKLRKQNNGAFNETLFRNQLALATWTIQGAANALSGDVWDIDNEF
T1 sequence (P02786 189-383 limits assumed): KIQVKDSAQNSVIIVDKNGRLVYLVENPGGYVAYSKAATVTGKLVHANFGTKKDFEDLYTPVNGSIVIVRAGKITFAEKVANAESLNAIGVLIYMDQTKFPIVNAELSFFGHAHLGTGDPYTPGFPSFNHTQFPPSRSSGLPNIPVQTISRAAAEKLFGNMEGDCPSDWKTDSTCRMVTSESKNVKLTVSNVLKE

B1: CD71-binding FN3 domain of SEQ ID NO: 487 (designed binder)
chain: MLPAPKNLVVSRVTEDSARLSWTAPDAAFDSFFIGYLEPQPPGEAIGLRVPGSERSYDLTGLKPGTEYNVTIQGVKGGFPSEPLIADFTT
RLU [1]: 3.43e+06 RLU
RLU [2]: 2.27e+06 RLU
Apical domain:HSA [3]: 220
hCD71:HSA [4]: 146

B6: CD71-binding FN3 domain of SEQ ID NO: 494 (designed binder)
chain: B1 chain with A24T, G47S, R49Y, E82M, I85S, D87I
RLU [1]: 3.32e+06 RLU
RLU [2]: 3.2e+06 RLU
Apical domain:HSA [3]: 369
hCD71:HSA [4]: 356

B7: CD71-binding FN3 domain of SEQ ID NO: 500 (designed binder)
chain: B1 chain with G47D, R49L, E82M, I85S, D87I
RLU [1]: 3.39e+06 RLU
RLU [2]: 2.95e+06 RLU
Apical domain:HSA [3]: 169
hCD71:HSA [4]: 147

B8: CD71-binding FN3 domain of SEQ ID NO: 497 (designed binder)
chain: B1 chain with G47T, R49L, E82K, I85Y, D87Y
RLU [1]: 4.58e+06 RLU
RLU [2]: 2.93e+06 RLU
Apical domain:HSA [3]: 358
hCD71:HSA [4]: 229

B10: CD71-binding FN3 domain of SEQ ID NO: 499 (designed binder)
chain: B1 chain with G47S, R49Y, E82S, I85F
RLU [1]: 3.13e+06 RLU
RLU [2]: 2.78e+06 RLU
Apical domain:HSA [3]: 148
hCD71:HSA [4]: 132

B11: CD71-binding FN3 domain of SEQ ID NO: 498 (designed binder)
chain: B1 chain with G47I, R49W, E82I, D87V
RLU [1]: 5.67e+06 RLU
RLU [2]: 5.7e+06 RLU
Apical domain:HSA [3]: 112
hCD71:HSA [4]: 113

B12: CD71-binding FN3 domain of SEQ ID NO: 491 (designed binder)
chain: B1 chain with P42S, G47H, R49I, E82D, I85V, D87S
RLU [1]: 5.07e+06 RLU
RLU [2]: 4.66e+06 RLU
Apical domain:HSA [3]: 288
hCD71:HSA [4]: 265

B14: CD71-binding FN3 domain of SEQ ID NO: 493 (designed binder)
chain: B1 chain with G47L, R49A, E82L, I85V, D87H
RLU [1]: 2.5e+06 RLU
RLU [2]: 2.75e+06 RLU
Apical domain:HSA [3]: 172
hCD71:HSA [4]: 190

B15: CD71-binding FN3 domain of SEQ ID NO: 490 (designed binder)
chain: B1 chain with G47S, R49Q, E82A, I85V, D87N
RLU [1]: 2.9e+06 RLU
RLU [2]: 4.15e+06 RLU
Apical domain:HSA [3]: 281
hCD71:HSA [4]: 403

B16: CD71-binding FN3 domain of SEQ ID NO: 496 (designed binder)
chain: B1 chain with G47I, R49W, E82V, D87Q
RLU [1]: 5.66e+06 RLU
RLU [2]: 5.27e+06 RLU
Apical domain:HSA [3]: 47
hCD71:HSA [4]: 43

Results, then the binder that gave them:

RLU [1]: 5.48e+06 RLU
RLU [2]: 5.03e+06 RLU
Apical domain:HSA [3]: 53
hCD71:HSA [4]: 49
B2: CD71-binding FN3 domain of SEQ ID NO: 511 (designed binder)
chain: B1 chain with G47D, R49F, E82L, I85V, D87S

RLU [1]: 5.64e+06 RLU
RLU [2]: 5.38e+06 RLU
Apical domain:HSA [3]: 54
hCD71:HSA [4]: 52
B3: CD71-binding FN3 domain of SEQ ID NO: 505 (designed binder)
chain: B1 chain with P25L, G47H, R49F, D87N

RLU [1]: 2.68e+06 RLU
RLU [2]: 1.22e+06 RLU
Apical domain:HSA [3]: 172
hCD71:HSA [4]: 78
B4: CD71-binding FN3 domain of SEQ ID NO: 504 (designed binder)
chain: B1 chain with R49V, E82H, I85G, D87I

RLU [1]: 3.55e+06 RLU
RLU [2]: 4.22e+06 RLU
Apical domain:HSA [3]: 222
hCD71:HSA [4]: 264
B5: CD71-binding FN3 domain of SEQ ID NO: 508 (designed binder)
chain: B1 chain with G47T, R49S, D87I

RLU [1]: 2.34e+06 RLU
RLU [2]: 1.49e+06 RLU
Apical domain:HSA [3]: 222
hCD71:HSA [4]: 141
B9: CD71-binding FN3 domain of SEQ ID NO: 502 (designed binder)
chain: B1 chain with R49H, E82I, I85E, D87K

RLU [1]: 4.88e+06 RLU
RLU [2]: 3.21e+06 RLU
Apical domain:HSA [3]: 606
hCD71:HSA [4]: 399
B13: CD71-binding FN3 domain of SEQ ID NO: 501 (designed binder)
chain: B1 chain with G47S, R49L, E82V, I85S, D87I
